# Measured values reported in the Human Domainome abundance scans (Beltran et al. 2025).
# ± gives the uncertainty stated by the source.
# B1: Homeobox protein cut-like 2, residues 895 to 963; numbered along this chain, O14529 (parent)
# chain: EVDTLELTRQVKEKLAKNGICQRIFGEKVLGLSQGSVSDMLSRPKPWSKLTQKGREPFIRMQLWLSDQL
# Variants of: B1
# Assay: abundance fitness (aPCA) (normalised: wild type 0, dead -1); higher = more abundant; growth selection in yeast, the domain comes from the species named
# Conditions: Homo sapiens
row,Variant,abundance fitness
1,K49I,-0.112 ± 0.042
2,K49F,-0.281 ± 0.044
3,K49Q,0.034 ± 0.034
4,K49T,-0.035 ± 0.033
5,L7F,-0.141 ± 0.048
6,L7R,-0.045 ± 0.03
7,L7K,0.032 ± 0.04
8,W47L,-0.488 ± 0.028
9,W47K,-1.28 ± 0.16
10,W47M,-0.681 ± 0.053
11,W47C,-1.01 ± 0.15
12,W47F,-0.338 ± 0.041
13,R60L,-0.215 ± 0.027
14,R60I,-0.653 ± 0.091
15,R60S,-0.396 ± 0.034
16,R60K,0.15 ± 0.042
17,T51H,-0.235 ± 0.048
18,T51G,-0.145 ± 0.14
19,T51K,-0.115 ± 0.037
20,T51D,0.117 ± 0.062
21,T51I,-0.007 ± 0.053
22,T51Q,-0.247 ± 0.04
23,R23D,-0.042 ± 0.15
24,R23T,-0.155 ± 0.044

row,Variant,abundance fitness
1,R23I,-0.192 ± 0.094
2,R23Q,-0.079 ± 0.048
3,R23G,-0.103 ± 0.048
4,S66G,0.048 ± 0.073
5,S66K,0.109 ± 0.041
6,S66I,-0.039 ± 0.08
7,S66D,0.094 ± 0.24
8,S66M,-0.085 ± 0.032
9,S66V,-0.066 ± 0.037
10,L65C,-0.511 ± 0.1
11,L65G,-0.952 ± 0.14
12,L65P,-1.03 ± 0.051
13,L65R,-0.782 ± 0.055
14,L65D,-0.841 ± 0.27
15,L65Q,-0.926 ± 0.07
16,L65N,-0.973 ± 0.082
17,L65E,-1.28 ± 0.24
18,M61D,-0.702 ± 0.3
19,M61C,-0.292 ± 0.054
20,M61Q,-1.02 ± 0.1
21,M61F,-0.157 ± 0.072
22,M61V,-0.418 ± 0.048
23,V2W,-0.137 ± 0.045
24,V2K,0.017 ± 0.053

row,Variant,abundance fitness
1,V2P,-0.244 ± 0.056
2,V2N,-0.136 ± 0.077
3,Q62M,-0.153 ± 0.061
4,Q62S,-0.079 ± 0.035
5,Q62H,-0.127 ± 0.084
6,Q62V,-0.367 ± 0.046
7,Q62P,-0.84 ± 0.041
8,Q62F,-0.69 ± 0.14
9,P46Q,-0.053 ± 0.082
10,P46S,-0.093 ± 0.027
11,P46F,0.039 ± 0.032
12,P46T,-0.08 ± 0.036
13,W64C,-0.946 ± 0.17
14,W64M,-1.06 ± 0.1
15,W64P,-0.806 ± 0.05
16,W64D,-1.06 ± 0.2
17,W64S,-1.3 ± 0.097
18,Q10M,0.082 ± 0.033
19,Q10A,-0.23 ± 0.092
20,Q10Y,-0.313 ± 0.05
21,Q10K,0.07 ± 0.036
22,Q10C,-0.343 ± 0.082
23,Q10L,-0.018 ± 0.026
24,Q10E,-0.214 ± 0.095

row,Variant,abundance fitness
1,A16N,-0.189 ± 0.15
2,A16E,-0.1 ± 0.044
3,F25V,-0.646 ± 0.037
4,F25I,-0.711 ± 0.14
5,F25C,-0.707 ± 0.067
6,I24A,-0.117 ± 0.064
7,I24K,-0.084 ± 0.051
8,I24L,0.033 ± 0.029
9,I24M,-0.023 ± 0.037
10,I24P,-0.934 ± 0.12
11,L5W,-0.021 ± 0.033
12,L5S,-0.231 ± 0.03
13,L5M,0.122 ± 0.029
14,L5A,0.028 ± 0.028
15,L5V,0.015 ± 0.026
16,L5C,-0.03 ± 0.052
17,L5E,0.083 ± 0.031
18,E6K,-0.035 ± 0.045
19,E6D,0.096 ± 0.055
20,E6V,-0.191 ± 0.028
21,E6R,-0.162 ± 0.034
22,E6G,-0.111 ± 0.027
23,E6H,-0.142 ± 0.34
24,T8C,-0.022 ± 0.035

row,Variant,abundance fitness
1,T8N,-0.158 ± 0.058
2,T8L,-0.157 ± 0.026
3,T8F,-0.143 ± 0.04
4,S48E,-0.103 ± 0.055
5,S48Q,-0.085 ± 0.038
6,S48K,-0.088 ± 0.042
7,S48W,-0.387 ± 0.079
8,S48N,-0.055 ± 0.051
9,S48R,-0.13 ± 0.05
10,S48C,-0.003 ± 0.075
11,R43T,-0.162 ± 0.036
12,R43G,-0.233 ± 0.042
13,R43E,-0.124 ± 0.071
14,R43Y,0.017 ± 0.078
15,L32S,-0.203 ± 0.04
16,L32K,-0.169 ± 0.056
17,L32Q,-0.304 ± 0.1
18,L32T,-0.211 ± 0.047
19,L32R,-0.179 ± 0.052
20,L15D,-0.211 ± 0.048
21,L15R,-0.069 ± 0.045
22,L15S,-0.087 ± 0.053
23,L15C,-0.123 ± 0.043
24,L50I,-0.437 ± 0.07

row,Variant,abundance fitness
1,L50C,-0.488 ± 0.092
2,L50K,-1.3 ± 0.17
3,P57K,-0.058 ± 0.066
4,P57W,-0.102 ± 0.088
5,P57A,-0.016 ± 0.063
6,P57I,0.044 ± 0.041
7,P57L,0.087 ± 0.029
8,P57M,0.073 ± 0.043
9,P57G,-0.456 ± 0.32
10,P57Y,0.027 ± 0.052
11,P57D,-0.085 ± 0.17
12,V37N,-0.435 ± 0.1
13,V37P,-0.311 ± 0.028
14,V37F,0.01 ± 0.042
15,V37K,-0.232 ± 0.069
16,G26W,-0.591 ± 0.035
17,G26P,-0.219 ± 0.16
18,G26C,-0.02 ± 0.032
19,G26Y,-0.169 ± 0.042
20,Q22D,-0.457 ± 0.21
21,Q22N,-0.461 ± 0.14
22,Q22W,-0.021 ± 0.042
23,Q22M,-0.071 ± 0.046
24,Q22S,-0.089 ± 0.032

row,Variant,abundance fitness
1,V29G,-0.173 ± 0.039
2,V29K,-0.129 ± 0.037
3,V29Q,-0.381 ± 0.039
4,V29T,-0.258 ± 0.034
5,V29S,-0.325 ± 0.034
6,V29R,-0.121 ± 0.031
7,Q68N,-0.068 ± 0.05
8,Q68F,-0.099 ± 0.036
9,K28Q,0.012 ± 0.033
10,K28S,-0.116 ± 0.028
11,K28V,-0.184 ± 0.035
12,K28I,-0.502 ± 0.055
13,K28L,-0.335 ± 0.027
14,K28Y,-0.296 ± 0.047
15,K28R,-0.1 ± 0.032
16,N18R,0.013 ± 0.035
17,N18Q,-0.016 ± 0.034
18,N18D,-0.153 ± 0.081
19,N18K,0.04 ± 0.037
20,N18H,0.001 ± 0.049
21,E27M,-0.14 ± 0.027
22,E27G,-0.072 ± 0.033
23,E27W,-0.091 ± 0.032
